Source: the domain aggregation screens of Martell et al. (2025)

Test: soluble fraction after stress (log2 fold change); higher = more stays soluble; pooled small domains, quantitative proteomics
Conditions: stress: pH 4
Summary of the method: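 After pH 4 stress, pooled custom libraries of small protein domains were quantified with high-throughput quantitative proteomics. Aggregation propensity is taken from the fold change in each domain's soluble amount following the acid stress. The scale is log2, where higher values mean more stayed soluble.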

Row | Sequence | soluble fraction (log2)
1 | HMAGAITEREVEVLELLSRGLGNKEIAKELFVSEATVKSHLSHIYTKLAVDTRAGAVAAAIERRIIRAWR | -0.388
2 | HMAGASQAVKAQLRLREMILAGELPGGARIAELTLVEKLGVSRTPIRAALMRLEQEGLLHRLPGGGYAVRT | -0.41
3 | HMAGDDEIEKIAQDILAAWPDKVAAYQAGNKGLMGLFMGELMKKSQGKANPKVASGIIQKLLD | -0.455
4 | HMAGEDPANLELMRLMDEEYMEHPTKGVLGMVDFLRALGILTGPKRVRRLLRKMGIMAIYPK | -0.396
5 | HMAGGVFELTGKVTADAKAGDLVYVKAATGAGTKPVVTTVKTGADVIIGWLKEPVSSASVDQKMQVVLA | 0.22
6 | HMAGITLHAEEGRVRIRSQSEGLVKVLDAMGREQASWPLRSKGWWFFLTEGWAPGTYFVKTESGETQRFLV | 0.215
7 | HMAGNNTATKEIAELLIAKGADVNAMNLSPPGREIGGMTPLDMAILGNRNEIADLLRKHGGRTQKELKAE | -0.104
8 | HMAGPGAEVVDRLIAVLTGERPATAADQVLLSILKGLGIGGVVLPSERTGLGWSGLYQRVKEITDMN | -1.21
9 | HMAGPRRRLLDAAIDRAAERGLGDLSLRALAEELGTSHRMLSHHFGSKDGLWLAIVEEVERRQ | -0.661
10 | HMAGSTAASKHALALLNTARHSIRDGNLTSAAAEIKQALATSQEQIVITEARSLMTAMEARATTRRATVLQ | -0.179
11 | HMAGTAMRATTAVNVRSGAGTNYSRIGLLQAGEQIQALSSKNGWTQVSYKGRTGYVASAYLASL | 0.402
12 | HMAGTGKVNTGVANVRSGPGTNYEISGKIYADTEVSILETSNGWYKIKFGNLTGWMSGTVLDIK | -0.0124
13 | HMAGTPAVVKWFNPTKGFGFVTPREAGSDALLHASVLAKQGKRWLQEGTVVEVVLEEGPKGLVVSEVLTIE | -0.469
14 | HMAGWMPGGTNPAEPGRFAVLMDVDDSDAYKHMFLRWNGHAWEFERTRVLVKMEPSWWMRLPDDPEKP | -0.27
15 | HMAHKRVDGTIVTPLTADTIVLRTGTHGEQPFEIRDTTRHKLESLQKGDMVILLIDTDNKVIDVAIPP | -0.263
16 | HMAHYYVRNGYYYYQRRIPLDLRKFYSGANIKASLKTKDPAIAALFVAKFDRQYDAEFAQRRLNPD | -0.277
17 | HMAIELIDLIKNPETAPFSKLKYLKWMPEAEVTGFFNNLFQLNVTARETGDWSTVDKFLEDEGDRIAAQVA | -0.215
18 | HMAIEMSTITKRVTSTGEIRYRALLQIRREDVNYTESRTFSKKSLAEAWLKKREVELEANPELLHQ | ≥ 0.43
19 | HMAIGERIRFLRTLRRMTQKELGLAAGFPEKNASIRMAQYENGTRTPKAELTAVLAEILKVSPQALTV | 0.173
20 | HMAIKNKNEQLEAIIKFADLRGEFKTADIEELLSIKSSRARLLISELVKIGKLESIGSNRNRRYHIK | -0.302
21 | HMAIKTGAVTGHGVKVRKGPSTNEKAIHDVLYGSRLQILEEKNGFLKAKFEDGTTGWISKQFVTTTDKNLL | -0.0244
22 | HMAIKWTPEIEDEVSNKLKEKWSPEQISAWLKKNKSIMISHQRIYQFIVEDKMSGGNLYRNLRQ | 0.172
23 | HMAIPTTDSDKATDAQIKQIKLLGDIHPNLKLDAWLERNHVTWETLTREQAGNMMKAIKNKYGD | 0.132
24 | HMAISEAERARLQTKIKERNKMARWINTNLNPTSKIRNINPAETVRKLMTQDDADSLERSLDAFMEA | 0.0822
25 | HMAIVNVEVPSLVGKTEQEARNLLTEAGLKVNVVNDEDESKNDGVVLRQSKDAGTEVQEGTTITITVNKVS | -0.467
26 | HMAKDDFMSFVKAVWPEFIEGAHHRVIAQKFNDLATGKITRLIVNMPPRHTKSEFASYLLPAW | -0.144
27 | HMAKDEYGLTSNQRAFADEYIRNKGNATQAYLFAYPHIKKENTAAVNASRLLRNAKVSKYIADRTKEIL | -0.146
28 | HMAKIDSRKALIDQLTTTFTRAQLEELITKNELSTDARFFLSQWNAKGWIRKTAKNVYEKLR | 0.0107

Row | Sequence | soluble fraction (log2)
29 | HMAKLTPDQQELRAIRIELQMSQPDFADAININVPRLSSYEYGRTAGVPTSIMEAARELKRSMSR | -0.324
30 | HMAKRDEIEAELPRFVATITQELAASRDVLSMIEHYKQNSGPVFSAELDVLTADMRSGSYEAALTRFEARF | -0.0581
31 | HMAKRKYKSFKDVAEFAQKLGIKSSTEWWAYVRGHEIPSDIPKDPSTYYKKEWTTWGDFLGTGYVSSA | ≥ 0.43
32 | HMAKRTVPSVAEAIDNFRRQHRRMPSYAEMLPLLGVRSKSVVHFWINKLLENGLLEKDDKGYLTPGS | -0.241
33 | HMAKSPYDVLGLKEDAPFDEVKKRYRELVKKYHPDILMGRGESEEMIEKSTRKLQEINEAYETIKQRA | -0.0402
34 | HMAKVDIPHEMVDQRIDEIVEEIKMNLESQNMSLDDYLKRMNQTEAQLRANYEATAAEQVRQGLV | -0.982
35 | HMALDSQEVGYNIEARGARPVVAQLGKAGQFSAVENSIRLGDDNWIALAPKLAGGGNAGFTAGIKSALS | -0.293
36 | HMALIGSNLRHLRNERKLSQQELADLIRVGRTTIANIEANLANPGHKTLLEIVKVFDITIDELLHTDLTK | -0.684
37 | HMALKPKITIEELIRILNESKDLSDSETAKILNKDYTTAKYGKEFTSINVQGARYALDIATNTS | -0.323
38 | HMALLSNEDIMFNLEFNRDLAVASNDGVSRDEFLRNKYGISEEEYNMLRARYGDGLNAARIKEYVGQRD | -0.36
39 | HMALLSNTVDELHAGMRLDSYLFESGLYPSRSFAVKQIEAGKVFLNGDAVTKKTLVSNGDFIVYELEE | -0.506
40 | HMALMLGGLIVYLNTTAPRDDIDLIELSKDTKAMAAFGNKLASPDYNGKQFALDWHELSRDEIMSKYFS | -1.82
41 | HMALPDWLDPEAWAAWKRHRKAIRKPLTEDAVALSIRELAKLRDEGYGPTSVIENAILKGWQGLYPPK | 0.143
42 | HMALPGESVYVSILQSGSNRDQGVGYLDDGTMVVVDGAIKDIGKSIEVVINKSHQTVAGKMLFAKKVA | -0.144
43 | HMALPQPDDDRQDTKKRILDMAEDLLLTRGFNAFSYQHISSELGMKNAAIHYHYPKKNDLGVAVIQRYRRR | -0.178
44 | HMALQDKYAELLTAANTMGVTNLAVAEKDGTLHVSGTAKSTADYDSLWALYDKIDPNMASGDLMMNI | -0.0324
45 | HMALQDKYKELTDAATAAGVTDLQVREQDNVLYIDGTAPSGAVKDQLWAIYDKIDPNFVSGDLVLNVNVD | -0.49
46 | HMALTLDEARTQGRVGETFYGYLVALKTDAETEKLVNDINAERKASYQQLAKQNNVSVDDIAKLAGQKLV | -0.113
47 | HMALWFDEWKKYQDTIASADLLPDKAERDALIAQAEDRFNYWMDIYPRSASLNHSFDDLYEEHRRKIE | -1.33
48 | HMAMDYEGFKKSVYALTSIDLNAYKERQMKRRIDTLIAKNKYNGYEDYTAAIKKDKALFEEFVNYLTIN | -0.521
49 | HMAMMTKQRLIQLIHIARNDLQMDEDTYRQMLQGLTGKASTKGMDTPQLNRVLESMKKKGFRIK | ≥ 0.43
50 | HMAMNLQETVLMQLRDLILRGTFEPGQRLSEQPLAERLKASRTPVRSALVTLEQEGLIEASETGKYLVRQ | -0.845
51 | HMAMTNEEREALISEIKQTVNNSIDLKKDISDTEIKEAITQAVFERSEKSYLSIAEKQDIITAVFNSMR | -0.159
52 | HMANADVVLVDLDKEYTVDAAKFHSVVKHSPFNGFAVKGAPVLTIVRGTVVAENGEVVGQPGHSKMVRP | -0.0368
53 | HMANEGWDIYKLDIRNHKQPNGEYYSEKEIQSTINNTFGKGSFNVDWKKYEKDKEYREKTNYYYFQAKYFV | -0.24
54 | HMANHIAAIHVLKSKLQMSDSDYRVLITGLTQKASTKDMSDIERQRVRDHMQGLAERMGVVK | 0.0887
55 | HMANIAVTIPTGSSGDRIADILLQAGLIKDKQDFNQAVIAAGAEGKLRAGYFVIPSNATPAEIISILT | -0.253
